Target: Epidermal growth factor receptor (EGFR) on HT29 human colon adenocarcinoma cells (human) (UniProt P00533)
Assay: cell-based or functional assay

How did the EOP of phage recovered from HT29 spheroids, intercellular, 30 min turn out when “Hi-D::EGF phage (λF7 phage with maximal EGF surface decoration, generated using SupD E. coli host at 37° C.) (from UniProt P03712 1-110)” was run?
The EOP of phage recovered from HT29 spheroids, intercellular, 30 min was 0.00156 EOP.

And the EOP of phage recovered from HT29 spheroids, intercellular, 4 h?
Its EOP of phage recovered from HT29 spheroids, intercellular, 4 h is 0.0572 EOP.

What about the EOP of phage recovered from HT29 spheroids, intercellular, 8 h of the same substance?
Its EOP of phage recovered from HT29 spheroids, intercellular, 8 h is 0.0183 EOP.

And the EOP of phage recovered from HT29 spheroids, intercellular, 24 h?
Its EOP of phage recovered from HT29 spheroids, intercellular, 24 h is 0.0113 EOP.

What about the EOP of phage recovered from lysed HT29 cells, intracellular, 30 min of the same substance?
The EOP of phage recovered from lysed HT29 cells, intracellular, 30 min was 0.00013 EOP.

What about the EOP of phage recovered from lysed HT29 cells, intracellular, 4 h of the same substance?
Its EOP of phage recovered from lysed HT29 cells, intracellular, 4 h is 0.00392 EOP.

What about the EOP of phage recovered from lysed HT29 cells, intracellular, 8 h of the same substance?
The EOP of phage recovered from lysed HT29 cells, intracellular, 8 h was 0.00147 EOP.

What about the EOP of phage recovered from lysed HT29 cells, intracellular, 24 h of the same substance?
The EOP of phage recovered from lysed HT29 cells, intracellular, 24 h was 0.000312 EOP.

What about the HT29 spheroid diameter on day 20, 10^4 PFU phage of the same substance?
Its HT29 spheroid diameter on day 20, 10^4 PFU phage is 1330 µm.

What about the HT29 spheroid diameter on day 20, 10^8 PFU phage of the same substance?
Its HT29 spheroid diameter on day 20, 10^8 PFU phage is 422 µm.

And the recovery of phage particles from the interstitial spaces and within cells at 30 min, against wildtype phages?
Its recovery of phage particles from the interstitial spaces and within cells at 30 min, against wildtype phages is 150 fold.

And the size of HT29 spheroids on day 20 against control spheroids, high concentration of phage?
Its size of HT29 spheroids on day 20 against control spheroids, high concentration of phage is 3 fold.
